According to patent US20190352359A1 (IMMATICS BIOTECHNOLOGIES, published 2019):

Biological target: T1, HLA-A*24
T1 construct: Monomers captured on streptavidin plates; also called peptide-receptive MHC molecules; MHC complexes
Assay: UV peptide-exchange ELISA (anti-b2m); yield grade ++++ = >75%
Description: Candidate peptides for T cell based therapies according to the present invention were further tested for their MHC binding capacity (affinity). The individual peptide-MHC complexes were produced by UV-ligand exchange, where a UV-sensitive peptide is cleaved upon UV-irradiation, and exchanged with the peptide of interest as analyzed. Only peptide candidates that can effectively bind and stabilize the peptide-receptive MHC molecules prevent dissociation of the MHC complexes. To determine the yield of the exchange reaction, an ELISA was performed based on the detection of the light chain (p2m) of stabilized MHC complexes. The assay was performed as generally described in Rodenko et al. (Rodenko et al., 2006)
96 well MAXISorp plates (NUNC) were coated over night with 2 ug/ml streptavidin in PBS at room temperature, washed 4× and blocked for 1 h at 37° C. in 2% BSA containing blocking buffer. Refolded HLA-A*02:01/MLA-001 monomers served as standards, covering the range of 15-500 ng/ml. Peptide-MHC monomers of the UV-exchange reaction were diluted 100-fold in blocking buffer. Samples were incubated for 1 h at 37° C., washed four times, incubated with 2 ug/ml HRP conjugated anti-β2m for 1h at 37° C., washed again and detected with TMB solution that is stopped with […]. Absorption was measured at 450 nm. Candidate peptides that show a high exchange yield (preferably higher than 50%, most preferred higher than 75%) are generally preferred for a generation and production of antibodies or fragments thereof, and/or T cell receptors or fragments thereof, as they show sufficient avidity to the MHC molecules and prevent dissociation of the MHC complexes.

**Q.** Which peptide exchange yield does the source give for RWLSKPSLL (also called RWLSKPSLL) [KBTBD8-004] here?
**A.** The peptide exchange yield was over 75%.

**Q.** VYLDEKQHAW (also called VYLDEKQHAW) [TCL1A-005] was tested. Which peptide exchange yield did it give?
**A.** The peptide exchange yield was over 75%.

**Q.** With RYILEPFFI (also called RYILEPFFI) [SLC7A11-007] as the binder, how does the peptide exchange yield read?
**A.** The peptide exchange yield was over 75%.

**Q.** How did the peptide exchange yield turn out when SFISPRYSWLF (also called SFISPRYSWLF) [SPNS3-005] was run?
**A.** Its peptide exchange yield is over 75%.

**Q.** For IYLVGGYSW (also called IYLVGGYSW) [KLHL14-007], which peptide exchange yield is on record?
**A.** Its peptide exchange yield is over 75%.

**Q.** How did the peptide exchange yield turn out when DYLLSWLLF (also called DYLLSWLLF) [CNR2-003] was run?
**A.** Its peptide exchange yield is over 75%.

**Q.** How did the peptide exchange yield turn out when QRYGFSSVGF (also called QRYGFSSVGF) [RHBG-001] was run?
**A.** The peptide exchange yield was over 75%.

**Q.** For AFISVPLLI (also called AFISVPLLI) [TAS2R38-003], which peptide exchange yield is on record?
**A.** Its peptide exchange yield is over 75%.

**Q.** Which peptide exchange yield does the source give for IYNEHGIQQI (also called IYNEHGIQQI) [COL11A1-003] here?
**A.** Its peptide exchange yield is over 75%.

**Q.** With KWKPSPLLF (also called KWKPSPLLF) [GPR126-002] as the binder, how does the peptide exchange yield read?
**A.** The peptide exchange yield was over 75%.

**Q.** Which peptide exchange yield does the source give for IFMGAVPTL (also called IFMGAVPTL) [LPAR3-001] here?
**A.** Its peptide exchange yield is over 75%.

**Q.** For VFPSVDVSF (also called VFPSVDVSF) [PTP-043], which peptide exchange yield is on record?
**A.** The peptide exchange yield was over 75%.

**Q.** With KFLTHDVLTELF (also called KFLTHDVLTELF) [TRPM8-009] as the binder, how does the peptide exchange yield read?
**A.** The peptide exchange yield was over 75%.

**Q.** Which peptide exchange yield does the source give for SYTPLLSYI (also called SYTPLLSYI) [C1orf94-002] here?
**A.** Its peptide exchange yield is over 75%.

**Q.** PEYSLPVLTF (also called PEYSLPVLTF) [PTP-040] was tested. Which peptide exchange yield did it give?
**A.** The peptide exchange yield was over 75%.

**Q.** How did the peptide exchange yield turn out when FYFYNCSSL (also called FYFYNCSSL) [ERV-001] was run?
**A.** The peptide exchange yield was over 75%.

**Q.** Which peptide exchange yield does the source give for CYSFIHLSF (also called CYSFIHLSF) [NLR-006] here?
**A.** Its peptide exchange yield is over 75%.

**Q.** With RYADLLIYTY (also called RYADLLIYTY) [MYO3B-005] as the binder, how does the peptide exchange yield read?
**A.** Its peptide exchange yield is over 75%.

**Q.** With VYSDLHAFY (also called VYSDLHAFY) [MANEAL-004] as the binder, how does the peptide exchange yield read?
**A.** The peptide exchange yield was over 75%.

**Q.** For TYSTNRTMI (also called TYSTNRTMI) [FLT3-013], which peptide exchange yield is on record?
**A.** The peptide exchange yield was over 75%.

**Q.** VYDYIPLLL (also called VYDYIPLLL) [MROH2A-005] was tested. Which peptide exchange yield did it give?
**A.** Its peptide exchange yield is over 75%.

**Q.** Which peptide exchange yield does the source give for VHMKDFFYF (also called VHMKDFFYF) [DYRK4-001] here?
**A.** The peptide exchange yield was over 75%.

**Q.** How did the peptide exchange yield turn out when IYLLLPPVI (also called IYLLLPPVI) [OR51E2-004] was run?
**A.** The peptide exchange yield was over 75%.

**Q.** With EYIDEFQSL (also called EYIDEFQSL) [RTL-003] as the binder, how does the peptide exchange yield read?
**A.** The peptide exchange yield was over 75%.

**Q.** For VYCSLDKSQF (also called VYCSLDKSQF) [RTL-004], which peptide exchange yield is on record?
**A.** The peptide exchange yield was over 75%.

**Q.** AAFISVPLLI (also called AAFISVPLLI) [TAS2R38-002] was tested. Which peptide exchange yield did it give?
**A.** The peptide exchange yield was over 75%.

**Q.** Which peptide exchange yield does the source give for RYQSVIYPF (also called RYQSVIYPF) [AGTR2-002] here?
**A.** The peptide exchange yield was over 75%.

**Q.** How did the peptide exchange yield turn out when IFMENAFEL (also called IFMENAFEL) [APOB-079] was run?
**A.** The peptide exchange yield was over 75%.

**Q.** How did the peptide exchange yield turn out when TYIDTRTVFL (also called TYIDTRTVFL) [CAPN6-005] was run?
**A.** The peptide exchange yield was over 75%.

**Q.** How did the peptide exchange yield turn out when VYTVGHNLI (also called VYTVGHNLI) [KLB-003] was run?
**A.** Its peptide exchange yield is over 75%.

**Q.** How did the peptide exchange yield turn out when DYIQMIPEL (also called DYIQMIPEL) [RTL-002] was run?
**A.** Its peptide exchange yield is over 75%.

**Q.** LYAPTILLW (also called LYAPTILLW) [AFP-001] was tested. Which peptide exchange yield did it give?
**A.** The peptide exchange yield was over 75%.

**Q.** With MLPEASLLI (also called MLPEASLLI) [NLRP4-005] as the binder, how does the peptide exchange yield read?
**A.** The peptide exchange yield was over 75%.

**Q.** For LYICKVELM (also called LYICKVELM) [CTL-001], which peptide exchange yield is on record?
**A.** Its peptide exchange yield is over 75%.

**Q.** With KYNRQSMTL (also called KYNRQSMTL) [APOB-080] as the binder, how does the peptide exchange yield read?
**A.** Its peptide exchange yield is over 75%.

**Q.** Which peptide exchange yield does the source give for QYLQQQAKL (also called QYLQQQAKL) [FOXB1-002] here?
**A.** The peptide exchange yield was over 75%.

**Q.** For VYLTWLPGL (also called VYLTWLPGL) [IFNLR-001], which peptide exchange yield is on record?
**A.** The peptide exchange yield was over 75%.

**Q.** For KIYTTVLFANI (also called KIYTTVLFANI) [NPFFR2-003], which peptide exchange yield is on record?
**A.** Its peptide exchange yield is over 75%.

**Q.** For RYENVSILF (also called RYENVSILF) [ADCY8-001], which peptide exchange yield is on record?
**A.** The peptide exchange yield was over 75%.

**Q.** Which peptide exchange yield does the source give for AYVTEFVSL (also called AYVTEFVSL) [SCN3A-001] here?
**A.** The peptide exchange yield was over 75%.

**Q.** With TYATHVTEI (also called TYATHVTEI) [CCR8-004] as the binder, how does the peptide exchange yield read?
**A.** Its peptide exchange yield is over 75%.

**Q.** VYSDRQIYLL (also called VYSDRQIYLL) [ABCC11-006] was tested. Which peptide exchange yield did it give?
**A.** Its peptide exchange yield is over 75%.

**Q.** How did the peptide exchange yield turn out when EVYQKIILKF (also called EVYQKIILKF) [PASD-001] was run?
**A.** The peptide exchange yield was over 75%.

**Q.** For IYTFSNVTF (also called IYTFSNVTF) [BTN1-003], which peptide exchange yield is on record?
**A.** The peptide exchange yield was over 75%.

**Q.** With NYSPVTGKF (also called NYSPVTGKF) [OTOL-001] as the binder, how does the peptide exchange yield read?
**A.** Its peptide exchange yield is over 75%.

**Q.** For RFLDRGWGF (also called RFLDRGWGF) [ADAMTS12-005], which peptide exchange yield is on record?
**A.** Its peptide exchange yield is over 75%.

**Q.** For LYMSVEDFI (also called LYMSVEDFI) [STK31-001], which peptide exchange yield is on record?
**A.** Its peptide exchange yield is over 75%.

**Q.** With IWPGFTTSI (also called IWPGFTTSI) [PIWIL1-003] as the binder, how does the peptide exchange yield read?
**A.** Its peptide exchange yield is over 75%.

**Q.** With KMGRIVDYF (also called KMGRIVDYF) [GABRP-003] as the binder, how does the peptide exchange yield read?
**A.** Its peptide exchange yield is over 75%.

**Q.** Which peptide exchange yield does the source give for FYPEVELNF (also called FYPEVELNF) [MMP1-009] here?
**A.** The peptide exchange yield was over 75%.

**Q.** Which peptide exchange yield does the source give for FWFDSREISF (also called FWFDSREISF) [OR51E2-002] here?
**A.** Its peptide exchange yield is over 75%.

**Q.** With YFLPGPHYF (also called YFLPGPHYF) [SOX30-001] as the binder, how does the peptide exchange yield read?
**A.** Its peptide exchange yield is over 75%.

**Q.** With AYLQFLSVL (also called AYLQFLSVL) [GREB-002] as the binder, how does the peptide exchange yield read?
**A.** Its peptide exchange yield is over 75%.

**Q.** For FYNRLTKLF (also called FYNRLTKLF) [OFCC-001], which peptide exchange yield is on record?
**A.** The peptide exchange yield was over 75%.

**Q.** KFLGSKCSF (also called KFLGSKCSF) [HAS3-003] was tested. Which peptide exchange yield did it give?
**A.** The peptide exchange yield was over 75%.

**Q.** Which peptide exchange yield does the source give for FYQPDLKYLSF (also called FYQPDLKYLSF) [NLRP4-003] here?
**A.** The peptide exchange yield was over 75%.

**Q.** HYHAESFLF (also called HYHAESFLF) [HEPHL-003] was tested. Which peptide exchange yield did it give?
**A.** Its peptide exchange yield is over 75%.

**Q.** Which peptide exchange yield does the source give for IYNKTKMAF (also called IYNKTKMAF) [SLCO6-001] here?
**A.** Its peptide exchange yield is over 75%.

**Q.** For IYKFIMDRF (also called IYKFIMDRF) [FOXB1-001], which peptide exchange yield is on record?
**A.** Its peptide exchange yield is over 75%.

**Q.** For IQNAILHLF (also called IQNAILHLF) [OR51B5-001], which peptide exchange yield is on record?
**A.** Its peptide exchange yield is over 75%.

**Q.** For MYGIVIRTI (also called MYGIVIRTI) [NPSR-001], which peptide exchange yield is on record?
**A.** The peptide exchange yield was over 75%.

**Q.** TYETVMTFF (also called TYETVMTFF) [BTBD16-003] was tested. Which peptide exchange yield did it give?
**A.** Its peptide exchange yield is over 75%.

**Q.** With TYFFVDNQYW (also called TYFFVDNQYW) [MMP12-020] as the binder, how does the peptide exchange yield read?
**A.** Its peptide exchange yield is over 75%.

**Q.** How did the peptide exchange yield turn out when QKYYITGEAEGF (also called QKYYITGEAEGF) [ESR1-009] was run?
**A.** Its peptide exchange yield is over 75%.

**Q.** How did the peptide exchange yield turn out when ISWEVVHTVF (also called ISWEVVHTVF) [HMCN1-008] was run?
**A.** Its peptide exchange yield is over 75%.

**Q.** For VYISDVSVY (also called VYISDVSVY) [CLECL-003], which peptide exchange yield is on record?
**A.** The peptide exchange yield was over 75%.

**Q.** For VLPLHFLPF (also called VLPLHFLPF) [HBG2-001], which peptide exchange yield is on record?
**A.** Its peptide exchange yield is over 75%.
